Measurements taken from US8563520B2, “Treatment of ocular disease with inhibitors of alpha2 macroglobulin protein” (McGill University, priority 2005, dated 2013).
Where two headings read alike, the source gives them in different places.

Test system: Rat Retina
Procedure: The following experiment was conducted in order to assess changes in gene expression induced in the retina after intraocular injection of α2 macroglobulin protein. 2 μg of α2 macroglobulin protein was intraocularly injected into the right eye of rats (n=3) and the left eye was used as a control. One rat was tested at Day 3, one rat was tested at Day 7 and one rat was tested at Day 14. Retinas were isolated and mRNA was collected. Samples from each of the rats were studied by gene microassays. Retinas were carefully dissected out to insure that only retinal mRNAs were prepared for gene microarray studies. Samples were obtained from control eyes.
Total RNA was isolated from retinal tissue using TRIZOL® (Life Technologies). RNA was then further purified using the RNAEASY® (QIAGEN®). The integrity of the RNA samples was assessed by running aliquots on RNA 6000 Nano LabChip (Agilent) using the 2100 bioanalyzer (Agilent).
Probe synthesis, hybridization and scanning were done according to Affymetrix protocol, as a service at the McGill University and Genome Quebec Innovation Centre. For the experiments shown, Rat U34 Genome Arrays (8,700 genes, Affymetrix) were used. Briefly, RNA samples were first converted to double stranded cDNA (T7-(dT)24 primer (Genset)). Then the cDNAs were purified and used to generate the biotinylated cRNA probes (Bioarray High Yield RNA transcript labeling kit (Enzo diagnostics)). An aliquot of the purified cRNA was analyzed on RNA 6000 Nano LabChip (Agilent) to verify the integrity and size distribution. Immediately after hybridization the chip was placed in the Affymetrix GeneChip Fluidics Station 400 (Affymetrix). In total, 10 low-stringency washes (63 SSPE, 0.01% Tween-20, 0.005% Antifoam) and 4 high-stringency washes (100 mM MES, 0.1 M NaCl, 0.01% Tween-20, 50 C) were performed (all reagents from Sigma). The array was then incubated with SAPE® (streptavidin/phycoerythrin stain, Molecular Probes), followed by 10 low stringency washes. The array was incubated with biotinylated anti-streptavidin antibody (Vector Laboratories) and washed again with 15 low stringency washes. Specifically bound probe was detected by placing the array in the Agilent GeneArray scanner 2500 (Affymetrix). The scanned images were analyzed using the Microarray Analysis Suite version 5.0 (Affymetrix).
The fold change was analyzed by […] data for the control eye from the data on the eye injected with α2 macroglobulin. A fold change of 2 or greater indicates upregulation. A fold of 0.5 to 2 indicates no change. A fold change of 0.5 or less indicates downregulation.

[1] = gene ADP-ribosylation factor guanine nucleotide-exchange factor 1 (1392282_at)
[2] = gene Bone morphogenetic protein receptor, type 1A (1390398_at)
[3] = gene CDNA clone IMAGE: 7321089 (1389986_at)
[4] = gene CREB binding protein (1385852_at)
[5] = gene Ewing sarcoma breakpoint region 1 (1378518_at)
[6] = gene Exosome component 8 (predicted) (1386936_at)
[7] = gene FERM domain containing 4B (1384681_at)
[8] = gene Fc receptor, IgG, low affinity IIb (1371079_at)
[9] = gene High density lipoprotein binding protein (1375309_at)
[10] = gene RT1 class II, locus Ba (1370822_at)
[11] = gene RT1 class II, locus Bb (1371033_at)
[12] = gene RT1 class II, locus Da (1370883_at)
[13] = gene RT1 class II, locus Db1 (1370383_s_at)
[14] = gene S100 calcium binding protein A11 (calizzarin) (1375170_at)
[15] = gene Similar to CG10084-PA (1394756_at)
[16] = gene Similar to NICE-3 (1397412_at)
[17] = gene Similar to expressed sequence AV312086 (predicted) (1390657_at)
[18] = gene Similar to hypothetical protein D630010C10 (1385108_at)
[19] = gene Thyroid hormone receptor interactor 12 (1380803_at)
[20] = gene Transcribed locus (1381100_at)
[21] = gene Transcribed locus (1382211_at)
[22] = gene Transcribed locus (1382368_at)
[23] = gene Transcribed locus (1382510_at)
[24] = gene Transcribed locus (1384014_at)
[25] = gene Transcribed locus (1385552_at)
[26] = gene Transcribed locus (1391757_at)
[27] = gene Transcribed locus (1392155_at)
[28] = gene Transcribed locus (1392675_at)
[29] = gene Transcribed locus (1395390_at)
[30] = gene Transcribed locus (1397883_at)
[31] = gene actin related protein 2/3 complex, subunit 1B (1386925_at)
[32] = gene argininosuccinate synthetase (1370964_at)
[33] = gene ash1 (absent, small, or homeotic)-like (Drosophila) (predicted) (1382862_at)
[34] = gene cold inducible RNA binding protein (1382809_at)
[35] = gene complement component 1, s subcomponent (1387893_at)
[36] = gene complement component 3 (1368000_at)
[37] = gene complement component 4a (1370892_at)

B1: α2m: α2 macroglobulin protein injected intraocularly into normal rat eyes (protein, UniProt P06238 28-1472, looked up)
Alpha-2-macroglobulin: SAPQKPIYMVMVPSLLHAGTPEKACFLFSHLNETVAVRVSLESVRGNQSLFTDLVVDKDLFHCTSFTVPQSSSDEVMFFTVQVKGATHEFRRRSTVLVKKKESLVFAQTDKPIYKPGQTVRFRVVSLDESFHPLNELIPLLYIQDPKNNRIAQWQNFNLEGGLKQLSFPLSSEPTQGSYKVVIRTESGRTVEHPFSVEEFVLPKFEVRVTVPETITILEEEMNVSVCGIYTYGKPVPGRVTVNICRKYSNPSNCFGEESVAFCEKLSQQLDGRGCFSQLVKTKSFQLKRQEYEMQLDVHAKIQEEGTGVEETGKGLTKITRTITKLSFVNVDSHFRQGIPFVGQVLLVDGRGTPIPYETIFIGADEANLYINTTTDKHGLARFSINTDDIMGTSLTVRAKYKDSNACYGFRWLTEENVEAWHTAYAVFSPSRSFLHLESLPDKLRCDQTLEVQAHYILNGEAMQELKELVFYYLMMAKGGIVRAGTHVLPLKQGQMRGHFSILISMETDLAPVARLVLYAILPNGEVVGDTAKYEIENCLANKVDLVFRPNSGLPATRALLSVMASPQSLCGLRAVDQSVLLMKPETELSASLIYDLLPVKDLTGFPQGADQREEDTNGCVKQNDTYINGILYSPVQNTNEEDMYGFLKDMGLKVFTNSNIRKPKVCERLRDNKGIPAAYHLVSQSHMDAFLESSESPTETRRSYFPETWIWDLVVVDSAGVAEVEVTVPDTITEWKAGAFCLSNDTGLGLSPVVQFQAFQPFFVELTMPYSVIRGEAFTLKATVLNYLPTCIRVAVQLEASPDFLAAPEEKEQRSHCICMNQRHTASWAVIPKSLGNVNFTVSAEALNSKELCGNEVPVVPEQGKKDTIIKSLLVEPEGLENEVTFNSLLCPMGAEVSELIALKLPSDVVEESARASVTVLGDILGSAMQNTQDLLKMPYGCGEQNMVLFAPNIYVLDYLNETQQLTQEIKTKAIAYLNTGYQRQLNYKHRDGSYSTFGDKPGRNHANTWLTAFVLKSFAQARKYIFIDEVHITQALLWLSQQQKDNGCFRSSGSLLNNAMKGGVEDEVTLSAYITIALLEMSLPVTHPVVRNALFCLDTAWKSARGGAGGSHVYTKALLAYAFALAGNQDTKKEILKSLDEEAVKEEDSVHWTRPQKPSVSVALWYQPQAPSAEVEMTAYVLLAYLTTEPAPTQEDLTAAMLIVKWLTKQQNSHGGFSSTQDTVVALHALSKYGSATFTRAKKAAQVTIHSSGTFSTKFQVNNNNQLLLQRVTLPTVPGDYTVKVTGEGCVYLQTSLKYSVLPREEEFPFTVVVQTLPGTCEDPKAHTSFQISLNISYTGSRSESNMAIADVKMVSGFIPLKPTVKMLERSVHVSRTEVSNNHVLIYLDKVSNQTVNLSFTVQQDIPIRDLKPAVVKVYDYYEKDEFAVAKYSAPCSTDYGNA
Fold Change (α2m vs normal) Day 3 [1]: 0.5 | Fold Change (α2m vs normal) Day 7 [1]: 0.3 | Fold Change (α2m vs normal) Day 3 [2]: 0.4 | Fold Change (α2m vs normal) Day 7 [2]: 0.2 | Fold Change (α2m vs normal) Day 14 [2]: 2.6 | Fold Change (α2m vs normal) Day 3 (gene CD74 antigen (1367679_at)): 10.1 | Fold Change (α2m vs normal) Day 7 (gene CD74 antigen (1367679_at)): 6.5 | Fold Change (α2m vs normal) Day 3 [3]: 0.5 | Fold Change (α2m vs normal) Day 7 [3]: 0.3 | Fold Change (α2m vs normal) Day 14 [3]: 2.9 | Fold Change (α2m vs normal) Day 3 [4]: 0.5 | Fold Change (α2m vs normal) Day 7 [4]: 0.4 | Fold Change (α2m vs normal) Day 3 [5]: 0.4 | Fold Change (α2m vs normal) Day 7 [5]: 0.1 | Fold Change (α2m vs normal) Day 3 [6]: 0.4 | Fold Change (α2m vs normal) Day 7 [6]: 4.3 | Fold Change (α2m vs normal) Day 14 [6]: 2.4 | Fold Change (α2m vs normal) Day 3 [7]: 0.5 | Fold Change (α2m vs normal) Day 7 [7]: 0.2 | Fold Change (α2m vs normal) Day 14 [7]: 2.3 | Fold Change (α2m vs normal) Day 3 [8]: 9.4 | Fold Change (α2m vs normal) Day 7 [8]: 2.1 | Fold Change (α2m vs normal) Day 3 [9]: 0.5 | Fold Change (α2m vs normal) Day 7 [9]: 0.5 | Fold Change (α2m vs normal) Day 3 (gene LOC361776 (1373010_at)): 20.1 | Fold Change (α2m vs normal) Day 7 (gene LOC361776 (1373010_at)): 0.5 | Fold Change (α2m vs normal) Day 3 [10]: 8.3 | Fold Change (α2m vs normal) Day 7 [10]: 4.5 | Fold Change (α2m vs normal) Day 3 [11]: 6.8 | Fold Change (α2m vs normal) Day 7 [11]: 5.2 | Fold Change (α2m vs normal) Day 3 [12]: 16.1 | Fold Change (α2m vs normal) Day 7 [12]: 11.3 | Fold Change (α2m vs normal) Day 3 [13]: 4.9 | Fold Change (α2m vs normal) Day 7 [13]: 3.5 | Fold Change (α2m vs normal) Day 3 [14]: 2.0 | Fold Change (α2m vs normal) Day 7 [14]: 4.5 | Fold Change (α2m vs normal) Day 3 [15]: 0.5 | Fold Change (α2m vs normal) Day 7 [15]: 0.3 | Fold Change (α2m vs normal) Day 14 [15]: 2.4 | Fold Change (α2m vs normal) Day 3 [16]: 0.5 | Fold Change (α2m vs normal) Day 7 [16]: 0.4 | Fold Change (α2m vs normal) Day 14 [16]: 2.0 | Fold Change (α2m vs normal) Day 3 [17]: 0.4 | Fold Change (α2m vs normal) Day 7 [17]: 0.3 | Fold Change (α2m vs normal) Day 3 [18]: 0.4 | Fold Change (α2m vs normal) Day 7 [18]: 0.2 | Fold Change (α2m vs normal) Day 3 [19]: 0.3 | Fold Change (α2m vs normal) Day 7 [19]: 0.4 | Fold Change (α2m vs normal) Day 3 [20]: 0.4 | Fold Change (α2m vs normal) Day 7 [20]: 0.3 | Fold Change (α2m vs normal) Day 14 [20]: 5.4 | Fold Change (α2m vs normal) Day 3 [21]: 0.3 | Fold Change (α2m vs normal) Day 7 [21]: 4.2 | Fold Change (α2m vs normal) Day 3 [22]: 0.4 | Fold Change (α2m vs normal) Day 7 [22]: 0.2 | Fold Change (α2m vs normal) Day 14 [22]: 2.7 | Fold Change (α2m vs normal) Day 3 [23]: 0.4 | Fold Change (α2m vs normal) Day 7 [23]: 0.3 | Fold Change (α2m vs normal) Day 3 [24]: 0.5 | Fold Change (α2m vs normal) Day 7 [24]: 4.2 | Fold Change (α2m vs normal) Day 14 [24]: 2.0 | Fold Change (α2m vs normal) Day 3 [25]: 0.5 | Fold Change (α2m vs normal) Day 7 [25]: 0.3 | Fold Change (α2m vs normal) Day 3 [26]: 0.5 | Fold Change (α2m vs normal) Day 7 [26]: 0.2 | Fold Change (α2m vs normal) Day 14 [26]: 2.0 | Fold Change (α2m vs normal) Day 3 [27]: 2.4 | Fold Change (α2m vs normal) Day 7 [27]: 16.6 | Fold Change (α2m vs normal) Day 3 [28]: 0.4 | Fold Change (α2m vs normal) Day 7 [28]: 0.3 | Fold Change (α2m vs normal) Day 3 [29]: 0.4 | Fold Change (α2m vs normal) Day 7 [29]: 4.1 | Fold Change (α2m vs normal) Day 3 [30]: 2.4 | Fold Change (α2m vs normal) Day 7 [30]: 17.0 | Fold Change (α2m vs normal) Day 3 [31]: 2.7 | Fold Change (α2m vs normal) Day 7 [31]: 2.0 | Fold Change (α2m vs normal) Day 3 [32]: 0.4 | Fold Change (α2m vs normal) Day 7 [32]: 2.4 | Fold Change (α2m vs normal) Day 3 [33]: 0.5 | Fold Change (α2m vs normal) Day 7 [33]: 0.2 | Fold Change (α2m vs normal) Day 3 (gene cadherin 1 (1386947_at)): 0.4 | Fold Change (α2m vs normal) Day 7 (gene cadherin 1 (1386947_at)): 9.6 | Fold Change (α2m vs normal) Day 14 (gene cadherin 1 (1386947_at)): 2.4 | Fold Change (α2m vs normal) Day 3 [34]: 0.4 | Fold Change (α2m vs normal) Day 7 [34]: 0.1 | Fold Change (α2m vs normal) Day 14 [34]: 2.2 | Fold Change (α2m vs normal) Day 3 [35]: 6.0 | Fold Change (α2m vs normal) Day 7 [35]: 3.6 | Fold Change (α2m vs normal) Day 3 [36]: 8.4 | Fold Change (α2m vs normal) Day 7 [36]: 2.1 | Fold Change (α2m vs normal) Day 3 [37]: 2.2 | Fold Change (α2m vs normal) Day 7 [37]: 2.3 | Fold Change (α2m vs normal) Day 3 (gene complement factor B (1389470_at)): 3.9
